Data: the supplement of paper PMC10567573

B1: ZNF8 (parent)
chain: SLGRHKRTHTGEKPYTCSVCGKSF

Variants of: B1
Assay: protein stability index of a GFP-peptide fusion (GPS, HEK-293T) (PSI 1-6); higher = more stable
Details: c terminus: a fixed tail appended
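Note: lentivirally expressed fusions sorted by FACS into six bins by GFP to DsRed ratio, PSI derived from sequencing read proportions per bin multiplied by bin number.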

Going from SLRRHKRTHTGEKPYTCSVCGKSF [G3R] to SLYRHKRTHTGEKPYTCSVCGKSF [G3Y], the protein stability index rises from 2.03 to 2.79.

Compared with SLNRHKRTHTGEKPYTCSVCGKSF [G3N], SLPRHKRTHTGEKPYTCSVCGKSF [G3P] is higher in protein stability index: 2.21 for the first, 3.02 for the second.

Compared with SLTRHKRTHTGEKPYTCSVCGKSF [G3T], SLVRHKRTHTGEKPYTCSVCGKSF [G3V] is higher in protein stability index: 3.28 for the first, 3.78 for the second.

Going from SLWRHKRTHTGEKPYTCSVCGKSF [G3W] to SLSRHKRTHTGEKPYTCSVCGKSF [G3S], the protein stability index falls from 1.98 to 1.93.

Compared with SLMRHKRTHTGEKPYTCSVCGKSF [G3M], SLLRHKRTHTGEKPYTCSVCGKSF [G3L] is lower in protein stability index: 2.66 for the first, 1.21 for the second.

First: SLGRHPRTHTGEKPYTCSVCGKSF [K6P]
Second: SLGRHWRTHTGEKPYTCSVCGKSF [K6W]
The protein stability index of the first is higher: 2.18 for the first, 1.94 for the second.

First: SLGRHRRTHTGEKPYTCSVCGKSF [K6R]
Second: SLGRHARTHTGEKPYTCSVCGKSF [K6A]
The protein stability index of the first is higher: 2.77 for the first, 2.68 for the second.

First: SLGRHQRTHTGEKPYTCSVCGKSF [K6Q]
Second: SLGRHERTHTGEKPYTCSVCGKSF [K6E]
The protein stability index of the first is lower: 2.95 for the first, 3.29 for the second.

Compared with SLGRHCRTHTGEKPYTCSVCGKSF [K6C], SLGRHHRTHTGEKPYTCSVCGKSF [K6H] is lower in protein stability index: 3.29 for the first, 1.97 for the second.

First: SLGRHMRTHTGEKPYTCSVCGKSF [K6M]
Second: SLGRHTRTHTGEKPYTCSVCGKSF [K6T]
The protein stability index of the first is lower: 2.38 for the first, 2.97 for the second.

Compared with SLGRHGRTHTGEKPYTCSVCGKSF [K6G], SLGRHYRTHTGEKPYTCSVCGKSF [K6Y] is higher in protein stability index: 2.33 for the first, 3.23 for the second.

First: SLGRHIRTHTGEKPYTCSVCGKSF [K6I]
Second: SLGRHFRTHTGEKPYTCSVCGKSF [K6F]
The protein stability index of the first is higher: 2.43 for the first, 1.82 for the second.

Going from SLGRHDRTHTGEKPYTCSVCGKSF [K6D] to SLGRHVRTHTGEKPYTCSVCGKSF [K6V], the protein stability index falls from 4.27 to 2.35.

Compared with SLGRHLRTHTGEKPYTCSVCGKSF [K6L], SLGRHNRTHTGEKPYTCSVCGKSF [K6N] is higher in protein stability index: 2.04 for the first, 2.48 for the second.

Compared with SLGRHSRTHTGEKPYTCSVCGKSF [K6S], SLGFHKRTHTGEKPYTCSVCGKSF [R4F] is lower in protein stability index: 2.61 for the first, 2.57 for the second.

Compared with SLGNHKRTHTGEKPYTCSVCGKSF [R4N], SLGDHKRTHTGEKPYTCSVCGKSF [R4D] is lower in protein stability index: 3.1 for the first, 3 for the second.

First: SLGEHKRTHTGEKPYTCSVCGKSF [R4E]
Second: SLGPHKRTHTGEKPYTCSVCGKSF [R4P]
The protein stability index of the first is higher: 4.09 for the first, 2.34 for the second.

Compared with SLGIHKRTHTGEKPYTCSVCGKSF [R4I], SLGCHKRTHTGEKPYTCSVCGKSF [R4C] is higher in protein stability index: 1.89 for the first, 4.3 for the second.

Going from SLGMHKRTHTGEKPYTCSVCGKSF [R4M] to SLGTHKRTHTGEKPYTCSVCGKSF [R4T], the protein stability index rises from 2.5 to 3.61.

Compared with SLGVHKRTHTGEKPYTCSVCGKSF [R4V], SLGWHKRTHTGEKPYTCSVCGKSF [R4W] is lower in protein stability index: 2.5 for the first, 2.13 for the second.

Compared with SLGSHKRTHTGEKPYTCSVCGKSF [R4S], SLGHHKRTHTGEKPYTCSVCGKSF [R4H] is lower in protein stability index: 3.19 for the first, 2.85 for the second.

Going from SLGGHKRTHTGEKPYTCSVCGKSF [R4G] to SLGQHKRTHTGEKPYTCSVCGKSF [R4Q], the protein stability index falls from 3.44 to 2.2.

First: SLGRHKVTHTGEKPYTCSVCGKSF [R7V]
Second: SLGRHKSTHTGEKPYTCSVCGKSF [R7S]
The protein stability index of the first is higher: 3.37 for the first, 3.34 for the second.

Compared with SLGRHKGTHTGEKPYTCSVCGKSF [R7G], SLGRHKMTHTGEKPYTCSVCGKSF [R7M] is lower in protein stability index: 4.28 for the first, 2.44 for the second.

First: SLGRHKPTHTGEKPYTCSVCGKSF [R7P]
Second: SLGRHKYTHTGEKPYTCSVCGKSF [R7Y]
The protein stability index of the first is higher: 2.98 for the first, 2.96 for the second.

First: SLGRHKLTHTGEKPYTCSVCGKSF [R7L]
Second: SLGRHKQTHTGEKPYTCSVCGKSF [R7Q]
The protein stability index of the first is lower: 2.66 for the first, 2.98 for the second.

Compared with SLGRHKATHTGEKPYTCSVCGKSF [R7A], SLGRHKCTHTGEKPYTCSVCGKSF [R7C] is higher in protein stability index: 2.42 for the first, 4.55 for the second.

Going from SLGRHKFTHTGEKPYTCSVCGKSF [R7F] to SLGRHKWTHTGEKPYTCSVCGKSF [R7W], the protein stability index falls from 2.83 to 2.8.

First: SLGRHKNTHTGEKPYTCSVCGKSF [R7N]
Second: SLGRHKETHTGEKPYTCSVCGKSF [R7E]
The protein stability index of the first is lower: 3.38 for the first, 4.08 for the second.

Compared with SLGRHKHTHTGEKPYTCSVCGKSF [R7H], SLGRHKTTHTGEKPYTCSVCGKSF [R7T] is lower in protein stability index: 3.65 for the first, 2.32 for the second.

Going from SLGRHKITHTGEKPYTCSVCGKSF [R7I] to SLGRHKDTHTGEKPYTCSVCGKSF [R7D], the protein stability index falls from 3.39 to 3.02.

First: SLGRHKKTHTGEKPYTCSVCGKSF [R7K]
Second: SLGRPKRTHTGEKPYTCSVCGKSF [H5P]
The protein stability index of the first is higher: 3 for the first, 2.78 for the second.

First: SLGRTKRTHTGEKPYTCSVCGKSF [H5T]
Second: SLGRAKRTHTGEKPYTCSVCGKSF [H5A]
The protein stability index of the first is higher: 3.06 for the first, 2.5 for the second.

Compared with SLGRWKRTHTGEKPYTCSVCGKSF [H5W], SLGRSKRTHTGEKPYTCSVCGKSF [H5S] is lower in protein stability index: 2.46 for the first, 2.35 for the second.

Going from SLGREKRTHTGEKPYTCSVCGKSF [H5E] to SLGRCKRTHTGEKPYTCSVCGKSF [H5C], the protein stability index rises from 3.15 to 3.77.

First: SLGRMKRTHTGEKPYTCSVCGKSF [H5M]
Second: SLGRNKRTHTGEKPYTCSVCGKSF [H5N]
The protein stability index of the first is higher: 2.6 for the first, 2.52 for the second.

Compared with SLGRVKRTHTGEKPYTCSVCGKSF [H5V], SLGRFKRTHTGEKPYTCSVCGKSF [H5F] is lower in protein stability index: 2.54 for the first, 1.82 for the second.

First: SLGRQKRTHTGEKPYTCSVCGKSF [H5Q]
Second: SLGRIKRTHTGEKPYTCSVCGKSF [H5I]
The protein stability index of the first is lower: 2.84 for the first, 3.34 for the second.

Going from SLGRGKRTHTGEKPYTCSVCGKSF [H5G] to SLGRLKRTHTGEKPYTCSVCGKSF [H5L], the protein stability index falls from 3.18 to 2.26.

First: SLGRRKRTHTGEKPYTCSVCGKSF [H5R]
Second: SLGRDKRTHTGEKPYTCSVCGKSF [H5D]
The protein stability index of the first is lower: 3.03 for the first, 3.17 for the second.

Going from SLGRYKRTHTGEKPYTCSVCGKSF [H5Y] to SLGRKKRTHTGEKPYTCSVCGKSF [H5K], the protein stability index rises from 2.72 to 3.01.

Compared with SLGRHKRTHTGSKPYTCSVCGKSF [E12S], SLGRHKRTHTGCKPYTCSVCGKSF [E12C] is lower in protein stability index: 2.64 for the first, 2.24 for the second.

Going from SLGRHKRTHTGWKPYTCSVCGKSF [E12W] to SLGRHKRTHTGDKPYTCSVCGKSF [E12D], the protein stability index rises from 2.2 to 2.64.

Going from SLGRHKRTHTGYKPYTCSVCGKSF [E12Y] to SLGRHKRTHTGHKPYTCSVCGKSF [E12H], the protein stability index falls from 3.15 to 2.52.

First: SLGRHKRTHTGVKPYTCSVCGKSF [E12V]
Second: SLGRHKRTHTGTKPYTCSVCGKSF [E12T]
The protein stability index of the first is lower: 2.11 for the first, 2.24 for the second.

Going from SLGRHKRTHTGKKPYTCSVCGKSF [E12K] to SLGRHKRTHTGIKPYTCSVCGKSF [E12I], the protein stability index falls from 2.79 to 2.53.

First: SLGRHKRTHTGLKPYTCSVCGKSF [E12L]
Second: SLGRHKRTHTGRKPYTCSVCGKSF [E12R]
The protein stability index of the first is lower: 2.37 for the first, 3.19 for the second.
